One series relates to LNCaP tumor (PSMA+). The series is described as follows: MMAE release from conjugates in LNCaP tumor model (biodistribution by LC-MS). Format: in vivo, mice. The protocol: LNCaP tumor cells were grown to 80% confluence and detached with Trypsin-EDTA 0.05%. Cells were resuspended in PBS at a density of 30×10^6 cells/mL. The cell suspension was further diluted 1:1 with Matrigel. 200 μL of LNCaP cells (3×10^6 cells) were injected subcutaneously in the left flank of female athymic Balb/c AnNRj-Foxn1 mice (6 to 8 weeks of age). Tumors were grown until volumes of 200-300 mm^3 were observed.
0.1 ml of 50 μM solutions (2% DMSO, PBS) of the four Conjugates (1-4) were injected intravenously into 4 of the mice (1 mouse per SMDC). The animals were sacrificed after 24 h and the following organs were extracted: blood, LNCaP tumor (PSMA+), heart, lungs, liver, kidney, spleen, stomach. The blood fraction was centrifuged, and the plasma (supernatant) was extracted. The organs were preserved at −80° C. before being used for further analysis.
Frozen plasma or mouse tissues (˜50 mg) were thawed and treated with 600 μL of an aqueous solution containing 95% acetonitrile (ACN), and 0.1% HCOOH were added to induce protein precipitation. 50 μL of a solution of d8-MMAE, 50 nM) was added as internal standard. Samples were then homogenized with a tissue lyser for 15 minutes at 30 Hz. After homogenization, samples were centrifuged (21'000 g for 10 minutes). The supernatant was collected and dried at room temperature with a rotary evaporator. Pellets were then resuspended in 1 mL of an aqueous solution containing 3% ACN and 0.1% of TFA and subsequently purified on Oasis HLB SPE columns. Eluates were dried under vacuum at room temperature. […] Peak areas of analytes and internal standards were integrated, and corresponding ratios were calculated. The ratios were then transformed into pmol/g of wet tissue using single-concentration external calibration points and corrected by the total weight of the sample analysed. The percentage of injected dose per gram (% ID/g) was finally calculated by normalizing the value based on the total dose injected into the mouse. […]

The next series deals with HT1080.hPSMA tumor. The series is described as follows: MMAE release at different time points in HT1080.hPSMA tumor model (Conjugate 7 vs Conjugate 1). The series is classed as in vivo, mice. Here is the method:
HT1080.hPSMA tumor cells were grown to 90% confluence and detached with Trypsin-EDTA 0.05%. Cells were resuspended in Hank's Balanced Salt Solution (HBSS) at a 5×10^7 cells/mL density. 100 μL of HT1080.hPSMA cells (5×10^6 cells) were injected subcutaneously in the right flank of female athymic Balb/c AnNRj-Foxn1 mice (6 to 8 weeks of age). Tumors were grown until ˜250 mm^3 volume (average).
0.1 mL of a 50 μM solution (2% DMSO, PBS, 250 nmol/kg) of Conjugate 7 was injected intravenously into the tail vein of the mice. The animals were sacrificed after 6 h, 24 h, 48 h, or 72 h (n=3/group), and blood and the following organs were extracted: HT1080.hPSMA tumor, heart, lungs, liver, kidney, spleen, stomach. The blood fraction was centrifuged, and the plasma (supernatant) was extracted. The organs were stored at −80° C. before being used for further analysis.
Frozen plasma (50 μL) and mouse tissues (˜50 mg) were thawed, and 500 μL of PBS was added. Samples were kept on ice, and 50 μL solution of internal standard (d8-MMAE, 50 nM) was added. Samples were then homogenized at 4° C. with a tissue lyser for 2 minutes at 30 Hz for 4 cycles. After homogenization, samples were centrifuged (21'000 g, 10 min). Subsequently, 100 μL of supernatants were collected and added to 900 μL of acetonitrile (ACN) to induce protein precipitation. After centrifugation (21'000 g, 10 min), 800 μL of supernatants were collected and dried at room temperature with a vacuum centrifuge. Pellets were then resuspended in 20 μL of an aqueous solution containing 3% ACN and 0.1% of HCOOH, and 5 μL were injected into the UHPLC-MS system. […] Peak areas of analytes and internal standards were integrated, and corresponding ratios were calculated. The ratios were then transformed into pmol/g of wet tissue using single-concentration external calibration points and corrected by the total weight of the sample analysed. The percentage of injected dose per gram (% ID/g) was finally calculated by normalizing the value based on the total dose injected into the mouse. […]

SMILES strings stand for the structures.

Take `CC[C@H](C)[C@@H]([C@@H](CC(=O)N1CCC[C@H]1[C@H](OC)[C@@H](C)C(=O)N[C@H](C)[C@@H](O)c1ccccc1)OC)N(C)C(=O)[C@@H](NC(=O)[C@H](C(C)C)N(C)C(=O)OCc1ccc(NC(=O)[C@@H]2CCCN2C(=O)CNC(=O)CCCCCN2C(=O)CC(SC[C@H](N)C(=O)NCCCCCC(=O)NC[C@H]3CC[C@H](C(=O)N[C@@H](Cc4ccc5ccccc5c4)C(=O)NCCCC[C@H](NC(=O)N[C@@H](CCC(=O)O)C(=O)O)C(=O)O)CC3)C2=O)cc1)C(C)C` (some centres unmarked) [Conjugate 1]: the “MMAE release, experiment repeated with three mice each” value with LNCaP tumor (PSMA+) (24 h after intravenous injection, LNCaP tumor model, n=3) is “confirmed”. Moreover, the “MMAE release (quantitative biodistribution)” value with LNCaP tumor (PSMA+) (24 hours after intravenous injection, 0.1 ml of 50 μM, 1 mouse per SMDC, LNCaP tumor and organs) was “Significant release of MMAE”. Besides, in the series with HT1080.hPSMA tumor (6 h after i.v. 250 nmol/kg, n=3), the “MMAE release at 6 h” value is given as 200 pmol/g. For the same compound, the “MMAE release at highest accumulation point (average)” value in the series on HT1080.hPSMA tumor (24 h after i.v. 250 nmol/kg, n=3) is “approx. 300 pmol/g”. Also, in the series on HT1080.hPSMA tumor (i.v. 250 nmol/kg, time points 6, 24, 48, 72 h), the “Time of highest accumulation point of released MMAE” value is 24 h.
